Target: T1, ALDH1A2-His6 (UniProt O94788)
T1 sequence: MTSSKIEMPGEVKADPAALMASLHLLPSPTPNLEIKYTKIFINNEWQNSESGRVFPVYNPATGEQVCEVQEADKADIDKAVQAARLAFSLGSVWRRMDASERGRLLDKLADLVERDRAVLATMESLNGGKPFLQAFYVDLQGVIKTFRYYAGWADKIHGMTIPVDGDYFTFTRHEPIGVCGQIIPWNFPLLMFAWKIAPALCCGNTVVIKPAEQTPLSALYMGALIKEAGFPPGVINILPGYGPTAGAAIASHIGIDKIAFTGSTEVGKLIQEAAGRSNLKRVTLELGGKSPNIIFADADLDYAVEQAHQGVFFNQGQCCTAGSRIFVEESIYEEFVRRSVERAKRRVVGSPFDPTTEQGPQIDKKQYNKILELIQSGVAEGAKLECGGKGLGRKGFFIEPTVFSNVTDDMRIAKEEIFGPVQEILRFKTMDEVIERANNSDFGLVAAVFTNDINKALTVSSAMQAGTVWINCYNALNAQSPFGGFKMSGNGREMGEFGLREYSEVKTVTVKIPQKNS

human UBE3A protein
ubiquitination of ALDH1A2 in the reconstituted bacterial ubiquitination system (immunoblot): the ALDH1A2 protein was highly ubiquitinated in the presence of UBE3A protein

From US20200268855
